The target in experiment [1] is T1, integrin alphaVbeta3 (R&D systems) (human, UniProt P06756 31-992; P05106 27-718).
T1 construct: Bought heterodimer coated on an ELISA plate; also called αVβ3; purified alphaVbeta3 protein
Briefly: ELISA, integrin coated at 5 ug/ml, FLAG-Ang-2 10 ug/ml, anti-FLAG-HRP. How it is done: (§1) An ELISA plate was coated with diluting solutions of three kinds of integrin (integrin; alpha5beta1 (α5β1; α5: NCBI Accession No. P08648, β1: NCBI Accession No. P05556), alphaVbeta1 (αVβ1; αV: NCBI Accession No. P06756, β1: NCBI Accession No. P05556), and alphaVbeta3 (αVβ3; αV: NCBI Accession No. P06756, β3: NCBI Accession No. P05106); R&D systems) proteins diluted in PBS at a concentration of 5 μg/ml (18 hours, 4° C.) and then blocked with 1% (v/v) BSA at a room temperature for 1 hour. Thereafter, the plate was treated with Ang-2 protein (FLAG-Ang-2, 0.1 ml of Ang-2 protein solution diluted in PBS at a concentration of 10 μg/ml) tagged with a FLAG sequence ([…], Sigma) at N-terminal, incubated at a room temperature for 2 hours, and washed five times with 0.05% PBST (0.05% (v/v) Tween-20-containing phosphate buffer saline). After that, an anti-FLAG antibody (Sigma) conjugated with horseradish peroxidase (HRP) was added to react, and the plate was washed again five times with PBST. Bindings between Ang-2 and the three kinds of integrins were identified indirectly by measuring the amounts of the anti-FLAG antibody remaining in the ELISA plate via color development reaction using TMB (3,3,5,5-tetramethylbenzidine) as a substrate of HRP. As a negative control, those that were blocked only (treated with BSA only) without Ang-2 protein treatment were used.
On the technique in general: In an ELISA, binding on a coated surface is turned into a signal by an enzyme label.

In experiment [2] the target is T2, integrin alpha5beta1 (R&D systems) (human, UniProt P08648 42-995; P05556 21-728).
T2 construct: Bought heterodimer coated on an ELISA plate; also called α5β1
Described as above. As for the experimental part:
as §1

The target in experiment [3] is T3, integrin alphaVbeta1 (R&D systems) (human, UniProt P06756 31-992; P05556 21-728).
T3 construct: Bought heterodimer coated on an ELISA plate; also called αVβ1
The description is as above. How it is done:
as §1

In experiment [4] the target is T4, Ang-2 (R&D systems; 623-AN-025/CF) (human, UniProt O15123 19-496).
T4 sequence: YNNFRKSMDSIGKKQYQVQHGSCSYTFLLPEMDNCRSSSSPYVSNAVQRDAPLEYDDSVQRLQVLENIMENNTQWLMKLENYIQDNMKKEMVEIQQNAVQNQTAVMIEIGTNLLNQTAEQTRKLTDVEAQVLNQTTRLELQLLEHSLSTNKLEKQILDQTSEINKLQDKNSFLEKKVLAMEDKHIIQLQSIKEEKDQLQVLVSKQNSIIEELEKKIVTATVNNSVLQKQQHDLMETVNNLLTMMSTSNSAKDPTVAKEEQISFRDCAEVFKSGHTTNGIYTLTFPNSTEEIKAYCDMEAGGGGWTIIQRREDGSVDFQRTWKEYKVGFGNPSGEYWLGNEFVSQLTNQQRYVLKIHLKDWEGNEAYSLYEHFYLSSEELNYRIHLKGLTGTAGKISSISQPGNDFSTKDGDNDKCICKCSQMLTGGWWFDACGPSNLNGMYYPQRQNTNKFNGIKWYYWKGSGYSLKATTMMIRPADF
Briefly: cell-based or functional assay.

Experiment [5] concerns the target mutant Ang-2 protein, A449 substituted with alanine (FLAG-tagged at N-terminal) (human) (UniProt O15123). Put plainly: ELISA, antibody coated, 250 ng FLAG-tagged mutant Ang-2, anti-FLAG-HRP, OD450 relative to native Ang-2.

T2 sequence (P08648 42-995 limits assumed, chain 1 of 2): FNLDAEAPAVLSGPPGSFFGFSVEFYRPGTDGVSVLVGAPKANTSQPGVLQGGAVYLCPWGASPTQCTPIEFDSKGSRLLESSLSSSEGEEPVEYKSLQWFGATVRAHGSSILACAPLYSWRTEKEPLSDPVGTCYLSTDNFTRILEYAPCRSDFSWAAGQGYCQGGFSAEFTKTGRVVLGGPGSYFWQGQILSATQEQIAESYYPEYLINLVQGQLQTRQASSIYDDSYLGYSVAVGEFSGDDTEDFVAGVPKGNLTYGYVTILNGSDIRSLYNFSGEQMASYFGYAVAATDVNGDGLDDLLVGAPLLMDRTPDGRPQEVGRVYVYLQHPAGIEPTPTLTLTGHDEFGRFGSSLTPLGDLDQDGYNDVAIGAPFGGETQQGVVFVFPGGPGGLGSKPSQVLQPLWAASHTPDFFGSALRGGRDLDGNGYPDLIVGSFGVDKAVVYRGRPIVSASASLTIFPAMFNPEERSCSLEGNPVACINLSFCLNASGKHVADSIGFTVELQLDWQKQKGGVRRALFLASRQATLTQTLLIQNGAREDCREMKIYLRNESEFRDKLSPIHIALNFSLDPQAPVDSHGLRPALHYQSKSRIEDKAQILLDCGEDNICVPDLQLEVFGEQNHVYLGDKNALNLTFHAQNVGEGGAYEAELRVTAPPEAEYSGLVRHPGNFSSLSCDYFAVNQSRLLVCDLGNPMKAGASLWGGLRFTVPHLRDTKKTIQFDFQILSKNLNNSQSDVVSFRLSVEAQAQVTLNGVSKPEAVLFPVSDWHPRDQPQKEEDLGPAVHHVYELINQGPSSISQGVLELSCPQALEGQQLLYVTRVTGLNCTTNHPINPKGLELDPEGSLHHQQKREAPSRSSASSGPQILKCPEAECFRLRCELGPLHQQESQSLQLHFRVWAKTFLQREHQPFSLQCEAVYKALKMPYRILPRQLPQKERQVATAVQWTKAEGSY
T2 sequence (P05556 21-728 limits assumed, chain 2 of 2): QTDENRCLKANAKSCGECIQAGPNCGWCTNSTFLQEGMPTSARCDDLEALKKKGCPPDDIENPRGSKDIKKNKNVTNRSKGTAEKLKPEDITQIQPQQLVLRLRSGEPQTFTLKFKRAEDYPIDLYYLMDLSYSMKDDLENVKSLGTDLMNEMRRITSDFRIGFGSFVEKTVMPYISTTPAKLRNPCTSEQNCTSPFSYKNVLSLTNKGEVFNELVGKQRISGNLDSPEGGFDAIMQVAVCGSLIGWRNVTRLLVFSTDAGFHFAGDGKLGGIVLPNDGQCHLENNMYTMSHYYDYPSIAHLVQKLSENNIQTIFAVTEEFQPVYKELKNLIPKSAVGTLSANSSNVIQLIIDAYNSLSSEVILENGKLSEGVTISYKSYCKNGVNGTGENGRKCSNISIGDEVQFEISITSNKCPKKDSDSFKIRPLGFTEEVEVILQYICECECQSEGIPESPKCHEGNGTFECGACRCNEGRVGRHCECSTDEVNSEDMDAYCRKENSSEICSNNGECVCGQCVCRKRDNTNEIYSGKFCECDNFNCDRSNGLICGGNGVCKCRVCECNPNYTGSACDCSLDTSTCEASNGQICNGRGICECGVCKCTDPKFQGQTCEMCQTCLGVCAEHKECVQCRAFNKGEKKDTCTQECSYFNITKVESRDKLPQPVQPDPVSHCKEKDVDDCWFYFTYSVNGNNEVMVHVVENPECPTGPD
T1 sequence (P06756 31-992 limits assumed, chain 1 of 2): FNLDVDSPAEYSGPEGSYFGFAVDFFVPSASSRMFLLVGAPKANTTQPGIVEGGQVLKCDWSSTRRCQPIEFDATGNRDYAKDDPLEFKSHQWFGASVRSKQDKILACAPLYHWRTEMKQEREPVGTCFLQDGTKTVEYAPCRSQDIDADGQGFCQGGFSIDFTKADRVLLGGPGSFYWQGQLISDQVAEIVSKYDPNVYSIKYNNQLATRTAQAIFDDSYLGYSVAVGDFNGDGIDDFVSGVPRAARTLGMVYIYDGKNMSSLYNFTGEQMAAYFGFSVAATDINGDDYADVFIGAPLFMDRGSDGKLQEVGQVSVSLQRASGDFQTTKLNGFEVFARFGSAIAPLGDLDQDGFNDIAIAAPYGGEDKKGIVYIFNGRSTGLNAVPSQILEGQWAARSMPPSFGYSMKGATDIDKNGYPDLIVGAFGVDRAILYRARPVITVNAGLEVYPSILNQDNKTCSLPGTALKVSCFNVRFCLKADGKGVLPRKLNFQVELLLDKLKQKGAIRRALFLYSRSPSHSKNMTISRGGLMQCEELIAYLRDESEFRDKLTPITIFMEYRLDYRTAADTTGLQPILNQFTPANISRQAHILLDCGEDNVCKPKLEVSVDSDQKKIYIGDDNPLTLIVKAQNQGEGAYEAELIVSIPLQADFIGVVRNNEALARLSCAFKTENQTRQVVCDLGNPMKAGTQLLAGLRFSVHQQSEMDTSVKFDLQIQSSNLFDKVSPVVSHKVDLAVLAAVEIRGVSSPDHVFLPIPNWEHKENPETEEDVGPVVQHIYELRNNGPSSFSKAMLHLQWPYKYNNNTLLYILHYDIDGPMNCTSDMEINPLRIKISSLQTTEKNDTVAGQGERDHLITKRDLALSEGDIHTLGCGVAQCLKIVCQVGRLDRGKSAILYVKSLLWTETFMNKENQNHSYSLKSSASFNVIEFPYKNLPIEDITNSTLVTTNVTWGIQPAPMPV
T1 sequence (P05106 27-718 limits assumed, chain 2 of 2): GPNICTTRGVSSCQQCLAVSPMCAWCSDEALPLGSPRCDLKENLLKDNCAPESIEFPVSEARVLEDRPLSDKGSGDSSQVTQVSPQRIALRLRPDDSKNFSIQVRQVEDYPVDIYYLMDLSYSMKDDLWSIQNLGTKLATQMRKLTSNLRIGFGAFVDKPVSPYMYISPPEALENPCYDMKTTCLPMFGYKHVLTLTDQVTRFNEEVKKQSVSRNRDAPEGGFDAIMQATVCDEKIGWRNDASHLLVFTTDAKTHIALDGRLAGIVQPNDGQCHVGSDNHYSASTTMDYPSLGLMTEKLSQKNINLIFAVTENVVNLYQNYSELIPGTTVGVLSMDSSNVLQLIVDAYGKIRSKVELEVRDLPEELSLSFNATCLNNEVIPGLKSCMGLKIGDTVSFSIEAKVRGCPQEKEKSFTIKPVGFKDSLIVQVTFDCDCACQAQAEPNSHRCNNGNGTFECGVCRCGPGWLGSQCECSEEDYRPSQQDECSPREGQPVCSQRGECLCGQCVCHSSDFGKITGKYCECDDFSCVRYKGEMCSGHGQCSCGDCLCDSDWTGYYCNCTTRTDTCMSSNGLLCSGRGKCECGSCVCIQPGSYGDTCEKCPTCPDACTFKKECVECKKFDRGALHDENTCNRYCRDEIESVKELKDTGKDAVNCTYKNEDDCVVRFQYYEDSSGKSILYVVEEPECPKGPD
T3 sequence (P06756 31-992 limits assumed, chain 1 of 2): as the sequence (P06756 31-992 limits assumed, chain 1 of 2) above
T3 sequence (P05556 21-728 limits assumed, chain 2 of 2): as the sequence (P05556 21-728 limits assumed, chain 2 of 2) above

B1: FLAG-tagged hAng-2 (ligand)
chain: DYKDDDDKYNNFRKSMDSIGKKQYQVQHGSCSYTFLLPEMDNCRSSSSPYVSNAVQRDAPLEYDDSVQRLQVLENIMENNTQWLMKLENYIQDNMKKEMVEIQQNAVQNQTAVMIEIGTNLLNQTAEQTRKLTDVEAQVLNQTTRLELQLLEHSLSTNKLEKQILDQTSEINKLQDKNSFLEKKVLAMEDKHIIQLQSIKEEKDQLQVLVSKQNSIIEELEKKIVTATVNNSVLQKQQHDLMETVNNLLTMMSTSNSAKDPTVAKEEQISFRDCAEVFKSGHTTNGIYTLTFPNSTEEIKAYCDMEAGGGGWTIIQRREDGSVDFQRTWKEYKVGFGNPSGEYWLGNEFVSQLTNQQRYVLKIHLKDWEGNEAYSLYEHFYLSSEELNYRIHLKGLTGTAGKISSISQPGNDFSTKDGDNDKCICKCSQMLTGGWWFDACGPSNLNGMYYPQRQNTNKFNGIKWYYWKGSGYSLKATTMMIRPADF
notes: also called FLAG-Ang-2
Regarding B1, the binding result in experiment [1], in experiment [2] and in experiment [3] was “binds” throughout.

B2: SAIT-Ang-2-AB-m7F8 (antibody, V domains shown)
VH: DVQLQESGPGLVKPSQSLSLTCTVTGYSITSDYAWNWIRQFPGNKLEWMGYISYSGSTSYNPSLKSRISITRDTSKNQFFLQLNSVTPEDTATYYCARSTFGHYVSSMDYWGQGTSVTVSS
VL: SIVMTQTPKLLLVSAGDRVTITCKASQSASNDVAWYQQKPGQSPKLLIYYASNRYTGVPDRFTGSGYGTDFTFAISTVQAEDLAIYFCQQDYSSPPTFGGGTKLEIK
For B2, the “Ang-2-depedent Cell Adhesion Degree (%)” value in experiment [4] came out at 35.1%. Also, the % at RBD binding (mutant Ang-2 against native Ang-2) in experiment [5] is 94.1%.

Source of the values: patent US20150010572A1 (SAMSUNG ELECTRONICS, published 2015).
